Results on five substances are retold here after article PMC4557296.

The target in test [1] is Atto532-labelled HP1α (human). As to the kind of experiment: smTIRFM (fluorescence intensities of individual binding events); as a10, in the presence of 1 μM peptide P3.
Test [2] concerns the target H3K9me3 (100%) chromatin array (12 nucleosomes) (human) (UniProt P68431). The experiment in a line: smTIRFM (single-molecule total internal reflection fluorescence microscopy); as a3, in the presence of 1 μM peptide P3.
Test [3] has the same target. The experiment in a line: smTIRFM (single-molecule total internal reflection fluorescence microscopy); as a3, with the mutated peptide P4 added (concentration not given).
For test [4] the target is unchanged. The experiment in a line: smTIRFM (single-molecule total internal reflection fluorescence microscopy); as a3, with 50 nM unlabelled HP1α added to 1 nM Atto532-labelled HP1α.
Test [5] has the same target. As to the kind of experiment: smTIRFM (single-molecule total internal reflection fluorescence microscopy); as a3, with 250 nM unlabelled HP1α added to 1 nM Atto532-labelled HP1α.
For test [6] the target is unchanged. The experiment in a line: smTIRFM (single-molecule total internal reflection fluorescence microscopy); as a3, with 1000 nM unlabelled HP1α added to 1 nM Atto532-labelled HP1α.
For test [7], the target named is Atto532-labelled HP1α (human). The experiment in a line: smTIRFM (fluorescence intensities of individual binding events); 1 nM Atto532-labelled HP1α on immobilised chromatin arrays; share of events with the intensity of a dimer.
In test [8] the target is H3K9me0 (unmodified) chromatin array (12 nucleosomes) (human) (UniProt P68431). The experiment in a line: smTIRFM (single-molecule total internal reflection fluorescence microscopy); chromatin arrays or mononucleosomes immobilised by biotin-neutravidin on PEG-passivated coverslips; 1 nM Atto532-labelled HP1α or 0.5 nM HP1αcdm in 50 mM HEPES, 130 mM KCl, 10% glycerol, 2 mM trolox, 0.005% tween-20, glucose and oxygen removal system; dwell-time histograms; apparent KD for a nucleosome in an array, calculated from the fast phase.

For test [9], the target named is H3K9me3 (100%) chromatin array (12 nucleosomes) (human) (UniProt P68431). Described as above.
The target of test [10] is H3K9me3 (25%) chromatin array (12 nucleosomes) (human) (UniProt P68431). Described as above.
The target in test [11] is H3K9me3 (50%) chromatin array (12 nucleosomes) (human) (UniProt P68431). The description is as above.
Test [12] deals with H3K9me3 (75%) chromatin array (12 nucleosomes) (human) (UniProt P68431). Described as above.
Test [13] addresses H3K9me3 mononucleosome (human) (UniProt P68431). The description is as above.
Test [14] has as its target H3K9me3 (100%) chromatin array (12 nucleosomes) (human) (UniProt P68431). The description is as above. The source holds these as a separate data set.
Test [15] has the same target. The test is described as above. The source holds these as a separate data set.
The target of test [16] is Atto532-labelled HP1α (human). As to the kind of experiment: MST; H3K9me3 1–14 peptide serially diluted (0.1–100 μM) and mixed 1:1 with a 300 nM stock of Atto532-labelled HP1α or HP1αcdm; 150 mM NaCl, 50 mM HEPES, 0.05% Tween, 1 mM DTT, pH 7.5; quadratic binding equation.
A further test has as its target HP1α (I163E) (human) (UniProt P45973). The test is described as above.
Test [17] deals with HP1αcdm (covalently dimerized HP1α, Atto532-labelled) (human) (UniProt P45973). The test is described as above.
In test [18] the target is H3K9me3 (100%) chromatin array (12 nucleosomes) (human) (UniProt P68431). As to the kind of experiment: smTIRFM (single-molecule total internal reflection fluorescence microscopy); chromatin arrays or mononucleosomes immobilised by biotin-neutravidin on PEG-passivated coverslips; 1 nM Atto532-labelled HP1α or 0.5 nM HP1αcdm in 50 mM HEPES, 130 mM KCl, 10% glycerol, 2 mM trolox, 0.005% tween-20, glucose and oxygen removal system; dwell-time histograms; apparent KD for a nucleosome in an array, calculated from the fast phase. The source holds these as a separate data set.

Sequence of HP1α (W40A) (P45973 whole entry, stated change not applied): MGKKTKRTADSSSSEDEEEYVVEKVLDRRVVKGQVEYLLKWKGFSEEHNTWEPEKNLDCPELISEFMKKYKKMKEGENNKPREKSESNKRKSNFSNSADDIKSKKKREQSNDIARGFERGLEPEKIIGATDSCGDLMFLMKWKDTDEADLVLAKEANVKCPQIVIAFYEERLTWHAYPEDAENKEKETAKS

Consider Atto532-labelled HP1α (natural protein), for which the percent dimeric HP1α in [1] turned out to be 42%. The Kd in test [2] is 0.38 µM; in [3], 0.84 µM; in test [4], 1.48 µM; in test [5], 3.72 µM; in [6], 3.11 µM; in test [9], 1.16 µM. For the same substance, the Kd in test [10] is 6.06 µM; in [11], 3.4 µM; in [12], 3.23 µM. Besides, the kon is 7.94e+06 M⁻¹ s⁻¹ in test [2]; 4.25e+06 M⁻¹ s⁻¹ in test [3]; 3.55e+06 M⁻¹ s⁻¹ in [4]; 2.07e+06 M⁻¹ s⁻¹ in test [5]; 2.92e+06 M⁻¹ s⁻¹ in test [6]; 3.64e+06 M⁻¹ s⁻¹ in test [9]. Further, the kon in test [10] was 1.1e+06 M⁻¹ s⁻¹; in test [11], 1.73e+06 M⁻¹ s⁻¹; in test [12], 1.63e+06 M⁻¹ s⁻¹; in test [15], 3.58e+06 M⁻¹ s⁻¹. Besides, the λon (apparent association time constant) in [2] is 10.5 s; in test [3], 19.6 s; in test [4], 23.8 s; in [5], 43.3 s; in [6], 29.3 s; in test [9], 22.9 s. Moreover, the λon (apparent association time constant) in test [10] was 75.8 s; in test [11], 48.2 s; in [12], 51 s. Also, the τoff,1 (fast phase of dissociation) in [2] was 0.33 s; in test [3] it was 0.28 s; in test [4], 0.19 s; in test [5], 0.13 s; in test [6], 0.11 s; in [8] it was 0.08 s. Further, the τoff,1 (fast phase of dissociation) in [9] is 0.25 s; in test [10], 0.15 s; in test [11] it was 0.17 s; in test [12] it was 0.19 s; in test [13], 0.13 s. Moreover, the τoff,2 (slow phase of dissociation) was 4.8 s in [2]; 4.45 s in test [3]; 3.97 s in [4]; 3.93 s in [5]; 2.75 s in test [6]; 3.7 s in [8]. Moreover, the τoff,2 (slow phase of dissociation) in [9] was 2.26 s; in test [10], 4.57 s; in test [11] it was 4.09 s; in test [12], 4.03 s; in [13] it was 1.18 s; in [14], 2.3 s. In test [7], this substance had a percent of binding events attributed to dimeric protein of 17%.

Take “H3K9me3 1–14 peptide (from UniProt P68431 2-15)”: the Kd in test [16] is 5.36 µM; in the test with HP1α (I163E) (human), 9.4 µM; in test [17] it was 12.5 µM.

“HP1α (I163E) (from UniProt P45973 1-191) (natural protein)”: in [9], the λon (apparent association time constant) is above 100 s, the τoff,1 (fast phase of dissociation) is 0.23 s and the τoff,2 (slow phase of dissociation) was 4.11 s.

In the case of “HP1α (W40A) (from UniProt P45973 1-191) (natural protein)”, in [9], the τoff,1 (fast phase of dissociation) was 0.1 s and the τoff,2 (slow phase of dissociation) was 0.56 s.

With “HP1αcdm (covalently dimerized HP1α, Atto532-labelled) (from UniProt P45973 1-177)”, in [9], the Kd was 0.13 µM, the kon is 2.24e+07 M⁻¹ s⁻¹, the λon (apparent association time constant) is 7.45 s and the τoff,1 (fast phase of dissociation) was 0.33 s. Besides, the τoff,2 (slow phase of dissociation) in test [9] is 3.4 s. For the same substance, the Kd in test [18] is 0.14 µM.

Broadly, the kon is the rate constant with which the complex forms.
